Measured values from patent US12636342B2, “TARS derived from Akkermansia muciniphila or fragment thereof, and use thereof” (KOREA RESEARCH INSTITUTE OF BIOSCIENCE AND BIOTECHNOLOGY, priority 2020, dated 2026).
“Also recorded” adds a separate entry of the source.

Legend:
[1] = tested on: BMDMs; test: Global gene expression profiling (RNA sequencing) of BMDMs; format: cell-based, mouse
Method: (A-E) Global gene expression analysis. Total mRNA from BMDMs treated with either AmTARS (0.5 μM) or Pam3 (10 ng ml-1) for 1 or 3 h was isolated and analyzed by RNA sequencing (A). Principle components analysis (PCA) of the gene expression profiles for each sample (B). Hierarchical clustering of gene expression profiles from each sample identified cluster 3 and 4 (C). Gene set enrichment analysis (GSEA) of clusters 3 and 4 with respect to terms related to inflammation (D). […] (F) Overview of the experimental procedures for zebrafish. The yolk of Tg (NFκB:EGFP) transgenic zebrafish larvae (3 dpf) was injected with PBS or AmTARS. Injected larvae were treated at 3 and 5 dpf with 0.5% DSS for 24 h, with a washing period with fresh water for 24 h in between. Sample collection and analysis of Tg (NFκB:EGFP)-based EGFP intensity were conducted at 6 dpf. (G) Representative confocal images showing NF-κB signaling in the mid-distal intestines of PBS- or AmTARS-injected larvae with or without DSS treatment. White dashed lines denote the boundaries of the intestines (based on merged DIC bright field images). (H) Bar graph comparing the fluorescence intensity of the mid-distal intestines of PBS- or AmTARS-injected larvae treated (or not) with DSS (n=32 per PBS group and n=35 per DSS group). (I) Schematic model of the role of AmTARS in maintaining immune homeostasis via TLR2-mediated anti-inflammatory signaling pathways. Data shown in (A-C) are representative and repeated twice. Data shown in (H) are representative of three independent experiments, each similar results (mean±SEM). P-values were calculated by unpaired and two-tailed Student's t-test.
We next performed global gene expression profiling of BMDMs treated with AmTARS or Pam3 for 1 or 3 h (FIG. 32A). […] Subsets of genes showing different expression patterns between AmTARS and Pam3 were classified into six clusters by hierarchical clustering analysis (FIGS. 33A and 33B). The gene expression pattern at 3 h was particularly different for clusters 3 and 4 (FIGS. 32C, 33A, and 33B). […]

[2] = tested on: BMDMs; test: Immunoblotting of AmTARS/TLR2-induced signaling molecules in BMDMs; format: cell-based, mouse; settings: BMDMs stimulated for 30 min, 0.5 μM
Method: (A and B) Analysis of key molecules that inhibit the MAPK and PI3K/AKT signaling pathways. IL-10 produced by BMDMs pre-treated with inhibitors of ERK (PD98059, […]), p38 (SB203580, […]), MSK1/2 (SB747651A, 10 μM), CREB (666-15, 1 μM), PI3K (Wortmannin, 10 μM), and AKT1/2 (AKT1/2, 10 μM) for 1 h before treatment with either PBS or AmTARS for 24 h (n=6 per group) (A). Flow cytometry analysis of M2 macrophages in BMDMs pre-treated for 1 h with the indicated kinase inhibitors, before treatment with either PBS or AmTARS for 24 h (n=3 per group) (B). (C and D) Western blot analysis of MAPK signaling molecules in lysates of BMDMs (C) or THP1 cells (D) treated for different times with 0.5 μM AmTARS. (E) Western blot analysis of lysates of BMDMs pre-treated with α-IgG (Isotype, 1 μg ml-1) or α-TLR2 (1 μg ml-1) for 1 h before treatment with PBS, AmTARS (0.5 μM), or Pam3 (0.5 μM) for 30 min. (F and G) Western blot analysis of PI3K/AKT signaling molecules in lysates of BMDMs (F) or THP1 cells (G) treated with 0.5 μM AmTARS. (H) AmTARS activates both TLR2/1- and TLR2/6-mediated signaling. Activation of AKT, ERK, and CREB was measured by western blot analysis of lysates of THP1 cells pre-treated with α-IgG, α-TLR1, α-TLR2, or α-TLR6 (1 μg ml-1) for 1 h before treatment for 30 min with PBS or AmTARS (0.5 µM). Data shown in (A and B) are representative of three independent experiments, each with similar results (mean±SEM). P-values were calculated using an unpaired two-tailed Student's t-test. Data shown in (C-H) are representative and repeated at least three times.
Subsequently, we conducted immunoblotting assays to measure the time-dependent activation of AmTARS/TLR2-induced signaling molecules in both BMDMs and THP1 cells. AmTARS rapidly activated ERK, p38, and MSK1/2 within 15 min and, subsequently, phosphorylation of CREB at Ser133 (which is essential for IL-10 production) within 30 min in BMDMs (FIG. 31C) and THP1 cells (FIG. 31D). We then compared AmTARS-triggered TLR2 signaling with typical ligand-triggered signaling using Pam3CSK4 (the synthetic canonical TLR2/1 agonist, referred to hereafter as Pam3) in BMDMs stimulated for 30 min. […] By contrast, activation of NF-κB was greater in Pam3-treated BMDMs than in AmTARS-treated BMDMs (FIG. 31E).

[3] = tested on: mouse model of dextran sulfate sodium (DSS)-induced colitis; test: DSS-induced colitis (inflammatory bowel disease) mouse model, intraperitoneal administration; format: in vivo; settings: inflammatory bowel disease mouse model; for distribution of B cells in the colon: normal mice
Method: We evaluated the anti-inflammatory function of AmTARS in a mouse model of dextran sulfate sodium (DSS)-induced colitis. First, we assessed dose-dependent responses (i.e., changes in body weight and colon length) to intraperitoneal (i.p.) administration of AmTARS (0.05-0.4 mg/kg) once every other day for 10 days (FIG. 10A).
The disease activity score was calculated by adding up scores ranging from 0 to 4 points for each item of bloody stool, diarrhea, and weight loss, and the epithelial damage score was calculated by assigning 0 to 4 points according to the degree of colon tissue damage.
Next, to measure IgA, mouse feces were collected and diluted in PBS containing a protein inhibitor, and then a supernatant with impurities removed was obtained, and 100 μL was placed in each well of a 96-well plate to perform protein coating at 4° C. for 2 h. The plate was washed three times with a washing solution (50 mM Tris, 0.2% in PBS) and then incubated with 100 μL of blocking solution at room temperature for 1-2 h, followed by washing. HRP conjugated IgA antibody (1:30000) was added and then incubated at room temperature for 1 h, followed by washing. Thereafter, 100 μL of a substrate solution was added, followed by incubation for 30 min, and then 50 μL of a stop solution was added, followed by measurement at 405-450 nm by an ELISA reader. […]

[4] = tested on: mouse bone marrow-derived macrophages (BMDMs); test: ELISA of immune cytokine secretion in BMDMs under normal conditions; format: cell-based; settings: normal (non-inflammatory) conditions, 24 h
Method: Specifically, mouse bone marrow-derived macrophages (BMDMs) as mouse-derived immune cells were extracted from the mouse thighbone and shinbone, and then cultured in DMEM containing 10% fetal bovine serum (FBS) and antibiotics. Human macrophages (THP1) as human-derived immune cells were cultured in RPMI media containing 10% FBS and antibiotics.
The cultured cells were treated with AmTARS at 0.1 μM, 0.2 μM, and 0.5 μM for 24 h to obtain cell cultures. For cell removal, the media were centrifuged at 500×g for 10 min to obtain supernatants, which were then analyzed using an ELISA set (mouse interleukin (IL)-6, mouse IL-10, mouse tumor necrosis factor (TNF)-α, human IL-6, human IL-10, human TNF-α; BD Biosciences) to investigate the secretion of mouse- and human-derived immune cytokines. […]

[5] = tested on: Raw 264.7 cells; test: ELISA of immune cytokine secretion in LPS-treated Raw 264.7 cells; format: cell-based, mouse; settings: Raw 264.7, LPS, 24 h
Method: Next, to determine whether the regulation of immune cytokine secretion by AmTARS in an inflammatory environment was induced by the two functional sites, the mouse-derived immune cell Raw 264.7 cells were treated with LPS to induce an immune response by the method as in Example 3, and treated with AmTARS, ΔU1AmTARS, and ΔU2AmTARS for 24 h separately to obtain cell cultures. The obtained cell cultures were analyzed for Immune cytokine secretion by way of the same method as in Example 2.

[6] = Aminoacylation reaction (malachite green phosphate assay); format: biochemical; settings: L-threonine, ATP, 30 min, free Pi at 620 nm
Method: TARS is an […] involved in protein synthesis, and the domain and site involved in its function are well known. The constructed deletion mutants were confirmed to have deletions of parts irrelevant to the function, but the aminoacylation reaction experiment was conducted to determine whether the deletion mutants performed the intrinsic functions thereof appropriately.
Specifically, a 2× reaction solution (100 mM Tris-HCl (pH 7.5), 20 mM MgCl2, 200 mM NaCl, 200 mM KCl, 2 mM DTT, 500 μM ATP, and 5 mM L-threonine) was prepared, and 25 μL of a reaction solution, 20 μL of distilled water, and 5 μL of protein were added to make a final 50 μL volume, followed by incubation for 30 min. Thereafter, a reaction was conducted using a malachite green phosphate assay kit (Bioassay Systems) for 30 min, and the free monophosphate group (Pi) was measured at a wavelength of 620 nm.

Molecule	transcription factors associated with up-regulated genes ([1]; GSEA (Enrichr))	gene set enrichment analysis, inflammatory response-related genes ([1]; Pam3 compared with AmTARS)	activation of NF-κB, Pam3 versus AmTARS [2]	amount of IgG increased by an inflammatory bowel disease [3]	distribution of B cells in the colon [3]	secretion/production of IL-10 [4]	secretion of IL-6 [5]	secretion of IL-10 [5]	secretion of TNF-α [5]	aminoacylation reaction / enzymatic activity [6]
Pam3CSK4	up-regulation of inflammation-related transcription factors such as NF-κB, RELA, and TFAP2A	significant induction of inflammatory response-related genes	greater	–	–	–	–	–	–	–
ΔU1AmTARS: AmTARS mutant with deletion of unique region U1 (residues 99-113); construct SEQ ID NO 7 (protein, misc_feature 1..1848 Akkermansia muciniphila TARS_del_Functional region 1) MSEHKERKTLEERQQMSDLERLRHSCAHVLATAICRLWPDAQLAGGPAVDNGFYYDVELDHRISTEDFERIEEEMKKVVKENQVFQKEVISRADAMKMSRFKIDLLNDIPEDEEISLYRNGDFTDLCAGPHVGRTGNCKAFKIMSVASAFYKGDKNRPMLQRIYGTCFPNRTQLDEHLERLEEARRRDHRKLGRELGLFCIDESVGQGLILWKPKGALIRRSLQDFITEELDKLGYSQVYTPNIGKLDLYRTSGHFPYYQESQYAPIPERDAMEKLSQEGASCAELFNGLATGTIEGYMLKPMNCPHHIKIYANDAHSYRDLPVRLAEFGTVYRWEQSGELGGMTRVRGFTQDDAHIFCTPDQLAGEIRQCLGIVKTIFGTLGMTDYRVRLSMRDPESDKYVGSPENWDKAEQALREAAEWLGADYSEEAGEAAFYGPKIDFIVRDAIGREWQLGTVQVDYNLPERFDLHYTGADNKPHRPVMVHRAPFGSMERFTGLLIEHFEGKFPTWLSPEQVRVLPISDKVTDVAAAHRTALAARGVRVTVDETPDKIGAKIRNARLDRVPYMLVLGQREAEDGTVSVRHRDKGDLGAMPFEQFADLVAREIAERHISPVI	–	–	–	did not show an effect of reducing the amount of IgG	reduced the efficacy of increasing B cells in the colon	abolished the IL-10 production	no effect	no effect	no effect	an aminoacylation reaction was shown; also recorded: Neither mutant protein was different from the wild-type
ΔU2AmTARS: AmTARS mutant with deletion of unique region U2 (residues 290-312); construct SEQ ID NO 8 (protein, misc_feature 1..1824 Akkermansia muciniphila TARS_del_Functional region 2) MSEHKERKTLEERQQMSDLERLRHSCAHVLATAICRLWPDAQLAGGPAVDNGFYYDVELDHRISTEDFERIEEEMKKVVKENQVFQKEVISRADAMKMAESGELGALGPRSEPSRFKIDLLNDIPEDEEISLYRNGDFTDLCAGPHVGRTGNCKAFKIMSVASAFYKGDKNRPMLQRIYGTCFPNRTQLDEHLERLEEARRRDHRKLGRELGLFCIDESVGQGLILWKPKGALIRRSLQDFITEELDKLGYSQVYTPNIGKLDLYRTSGHFPYYQESQYAPIPERDAMEYMLKPMNCPHHIKIYANDAHSYRDLPVRLAEFGTVYRWEQSGELGGMTRVRGFTQDDAHIFCTPDQLAGEIRQCLGIVKTIFGTLGMTDYRVRLSMRDPESDKYVGSPENWDKAEQALREAAEWLGADYSEEAGEAAFYGPKIDFIVRDAIGREWQLGTVQVDYNLPERFDLHYTGADNKPHRPVMVHRAPFGSMERFTGLLIEHFEGKFPTWLSPEQVRVLPISDKVTDVAAAHRTALAARGVRVTVDETPDKIGAKIRNARLDRVPYMLVLGQREAEDGTVSVRHRDKGDLGAMPFEQFADLVAREIAERHISPVI	–	–	–	did not show an effect of reducing the amount of IgG	reduced the efficacy of increasing B cells in the colon	abolished the IL-10 production	no effect	no effect	no effect	an aminoacylation reaction was shown; also recorded: Neither mutant protein was different from the wild-type
